In publication PMC10275983:
“And” between values parts separate entries of the source, which are not always exact repeats. Identical values can stand only once.

biological target: S1 (Novus Biologicals NBP2-90985) (SARS-CoV-2), P0DTC2; experiment: AlphaScreen or HTRF

Binder	IC50
ACEYVGPMCYRLYCA (modifications not checked) [BCY15354 (E1)]	360 nM and 1600 nM and 550 nM
ACEDNDWVYCSTCA (modifications not checked) [BCY15231 (E3)]	310 nM and 400 nM
ACMNPFFYDCETVCA (modifications not checked) [BCY16207 (E9)]	1100 nM
